Results on 167 variants are retold here after the RNAGym collection of RNA variant scans (doi:10.7554/elife.90254).

Sequences and labels used below:
B1: LINE1-mini (parent)
chain: GGCAGAGCUCAACACAGCGUGGCAAAGUGGCUGUGGCUAGACUGCC

The variants in this data set derive from B1. Description: self-cleavage, relative activity (ratio to wild type); higher = more cleavage; in vitro, sequencing; the parent is a self-cleaving ribozyme.
Regarding G17C U43A, the self-cleavage stood at 0.13.
As for G17C U43C, the self-cleavage was found to be 0.08.
The value for C18A C45G was 0.14.
In the case of C18A C45A, the self-cleavage is 0.24.
With C18A C45U, the self-cleavage came to 0.58.
With G17U U20A, the self-cleavage is 0.16.
Consider G17U U20G, for which the self-cleavage came out at 0.12.
Then G17U U20C, with 0.64.
Then C18A U20A, with 0.29; and C18A U20G, with 0.61; and C18A U20C, with 0.31.
In the case of G17U A26U, the self-cleavage turned out to be 0.04.
Then G17U A26G, with 0.1.
With G17U A26C, the self-cleavage came out at 0.23.
The value for G17U A24U was 0.25.
Then G17U A24C, with 0.11.
Then G17U A24G, with 0.09.
Consider G17U C42A, for which the self-cleavage stood at 0.05.
As for G17U C42G, the self-cleavage worked out at 0.06.
Then G17U C42U, with 0.06.
Then G17C G27A, with 1.06; and G17C G27U, with 1.06; and G17C G27C, with 0.29.
For C18A G40A, the self-cleavage was 0.05.
C18A G40U: the self-cleavage is 0.06.
Regarding C18A G40C, the self-cleavage amounted to 0.03.
In the case of G17U G27U, the self-cleavage turned out to be 0.35.
Then G17U G27C, with 0.22; and G17U G27A, with 0.38.
On to G17C U34C, for which the self-cleavage worked out at 0.09.
With G17C U34G, the self-cleavage came to 0.1.
The value for G17C U34A was 0.07.
As for G17U G22U, the self-cleavage worked out at 0.67.
As for G17U G22A, the self-cleavage stood at 0.26.
Then G17U G22C, with 0.61; and G17U U34A, with 0.05.
For G17U U34C, the self-cleavage amounted to 0.05.
For G17U U34G, the self-cleavage was 0.04.
As to C18G G22A, the self-cleavage amounted to 0.82.
Consider C18G G22U, for which the self-cleavage came out at 0.87.
Take C18G G22C: the self-cleavage is 0.12.
Then C18G G21A, with 0.77; and C18G G21C, with 0.62; and C18G G21U, with 1.38.
On to C18G G36U, for which the self-cleavage was determined as 0.07.
With C18G G36C, the self-cleavage came to 0.08.
As for C18G G36A, the self-cleavage was 0.1.
Then G17U G19U, with 0.14; and G17U G19A, with 0.78; and G17U G19C, with 1.08.
In the case of C18A U28G, the self-cleavage came out at 0.5.
For the variant C18A U28C, the self-cleavage was determined as 0.49.
The value for C18A U28A was 0.7; that for G17C C45U was 0.84.
Turning to G17C C45A, the self-cleavage is 0.16.
Consider G17C C45G, for which the self-cleavage came to 0.56.
C18G C42G: the self-cleavage was determined as 0.04.
Then C18G C42A, with 0.07; and C18G C42U, with 0.05.
C18G G35U: the self-cleavage amounted to 0.08.
Turning to C18G G35A, the self-cleavage amounted to 0.07.
In the case of G17C G29U, the self-cleavage amounted to 0.32.
Take G17C G29C: the self-cleavage was 0.34.
Consider G17C G29A, for which the self-cleavage was determined as 0.12.
As for C18A G29C, the self-cleavage worked out at 0.83.
In the case of C18A G29A, the self-cleavage worked out at 0.69.
Regarding C18A G29U, the self-cleavage worked out at 1.07.
With G17C G35C, the self-cleavage was 0.04.
G17C G35A: the self-cleavage stood at 0.11.
Then G17C G35U, with 0.03; and G17C C46G, with 0.54; and G17C C46A, with 0.64.
Consider G17C C46U, for which the self-cleavage was determined as 0.5.
Then G17U G30U, with 0.16.
Take G17U G30A: the self-cleavage worked out at 0.82.
Consider G17U G30C, for which the self-cleavage was determined as 0.59.
Turning to C18G G33A, the self-cleavage stood at 0.04.
In the case of C18G G33C, the self-cleavage turned out to be 0.03.
In the case of C18G G33U, the self-cleavage is 0.07.
Regarding C18A U32C, the self-cleavage was 0.16.
Take C18A U32G: the self-cleavage is 0.04.
The value for C18A U32A was 0.05.
With G17C A39C, the self-cleavage worked out at 0.11.
For the variant G17C A39G, the self-cleavage amounted to 0.1.
The value for G17C A39U was 0.29; that for G17C C42G was 0.03.
Turning to G17C C42A, the self-cleavage came to 0.05.
In the case of G17C C42U, the self-cleavage was 0.1.
The value for C18A U38G was 0.02; that for C18A U38A was 0.49.
Regarding C18A U38C, the self-cleavage was 0.09.
For the variant G17U G21U, the self-cleavage worked out at 0.36.
Turning to G17U G21C, the self-cleavage is 1.31.
As for G17U G21A, the self-cleavage was determined as 0.3.
In the case of G17C G22U, the self-cleavage is 1.51.
Then G17C G22A, with 1.3.
With G17C G22C, the self-cleavage is 0.82.
C18A A24U: the self-cleavage turned out to be 0.67.
The value for C18A A24G was 0.56.
On to C18A A24C, for which the self-cleavage was 0.18.
With C18A C46G, the self-cleavage is 0.47.
Turning to C18A C46A, the self-cleavage came out at 0.95.
Then C18A C46U, with 0.65.
The value for C18A was 0.85; that for C18G was 0.52; that for C18G C31U was 0.02.
For the variant C18G C31A, the self-cleavage came to 0.06.
Turning to C18G C31G, the self-cleavage worked out at 0.04.
Turning to G17C A25G, the self-cleavage was 0.18.
On to G17C A25C, for which the self-cleavage amounted to 0.51.
Turning to G17C A25U, the self-cleavage worked out at 0.87.
The value for C18A A39U was 0.76; that for C18A A39C was 0.06.
Consider C18A A39G, for which the self-cleavage was 0.05.
Regarding C18A C42A, the self-cleavage worked out at 0.12.
C18A C42U: the self-cleavage was 0.13.
Then C18A C42G, with 0.04; and C18A G33A, with 0.03; and C18A G33C, with 0.04.
As to C18A G33U, the self-cleavage stood at 0.04.
Then C18G G30C, with 1; and C18G G30A, with 0.92.
Then C18G G30U, with 0.62; and G17C G19U, with 0.24; and G17C G19A, with 1.14.
Regarding G17C G19C, the self-cleavage was 1.39.
Then G17U, with 0.23; and G17C, with 0.79.
As for C18A G21A, the self-cleavage came to 1.86.
The value for C18A G21U was 0.77; that for C18A G21C was 0.96; that for C18A A25U was 1.21.
For C18A A25G, the self-cleavage was 0.19.
C18A A25C: the self-cleavage worked out at 0.36.
Then G17U U43C, with 0.06; and G17U U43A, with 0.09.
Take G17U U43G: the self-cleavage turned out to be 0.06.
G17U A25U: the self-cleavage came out at 0.12.
As to G17U A25C, the self-cleavage is 0.12.
Regarding G17U A25G, the self-cleavage stood at 0.07.
Turning to C18A G22C, the self-cleavage turned out to be 0.92.
The value for C18A G22U was 1.74; that for C18A G22A was 1.07; that for C18A C31G was 0.04.
C18A C31A: the self-cleavage worked out at 0.16.
As to C18A C31U, the self-cleavage was 0.04.
Take G17U G35A: the self-cleavage turned out to be 0.07.
As to G17U G35C, the self-cleavage amounted to 0.18.
G17U G35U: the self-cleavage stood at 0.07.
Take C18A U43G: the self-cleavage is 0.26.
With C18A U43C, the self-cleavage is 0.05.
With C18A U43A, the self-cleavage is 0.08.
The value for G17C G40A was 0.04.
The value for G17C G40C was 0.05; that for G17C G40U was 0.07; that for C18A G36U was 0.07.
In the case of C18A G36C, the self-cleavage amounted to 0.03.
Take C18A G36A: the self-cleavage was determined as 0.13.
C18A G19C: the self-cleavage is 1.27.
On to C18A G19U, for which the self-cleavage stood at 0.31.
Then C18A G19A, with 1.05.
Then G17U A39G, with 0.04.
In the case of G17U A39C, the self-cleavage was 0.04.
The value for G17U A39U was 0.2; that for G17C U32A was 0.07; that for G17C U32G was 0.07.
Consider G17C U32C, for which the self-cleavage stood at 0.14.
